Data on two molecules can be found in publication PMC11021452, “Exposing the molecular heterogeneity of glycosylated biotherapeutics” (Nature Communications, 2024).

This experiment deals with T1, IL-22 RA1 extracellular domain (ECD) (UniProt Q8N6P7 16-228).
T1 construct: Coated on the ELISA plate; also called IL22 receptor; IL22R1A
T1 sequence (looked up): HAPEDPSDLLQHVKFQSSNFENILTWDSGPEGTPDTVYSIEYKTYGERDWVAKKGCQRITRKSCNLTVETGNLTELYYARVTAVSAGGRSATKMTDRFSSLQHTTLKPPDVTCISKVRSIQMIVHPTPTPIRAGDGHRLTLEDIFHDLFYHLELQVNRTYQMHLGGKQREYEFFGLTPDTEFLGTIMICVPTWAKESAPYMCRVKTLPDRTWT
In words: ELISA; 96-well plate coated with IL-22 RA1 ECD; varying concentrations of IL22-Fc added in duplicate; bound IL22-Fc detected with goat anti-human IgG-HRP and TMB; potency by parallel curve program relative to the reference standard. To be noted: both partners purified. A general note: ELISA stands for enzyme-linked immunosorbent assay.

B1: enzymatically desialylated IL22-Fc (Fc fusion, UniProt Q9GZX6 34-179, looked up)
chain: APISSHCRLDKSNFQQPYITNRTFMLAKEASLADNNTDVRLIGEKLFHGVSMSERCYLMKQVLNFTLEEVLFPQSDRFQPYMQEVVPFLARLSNRLSTCHIEGDDLHIQRNVQKLKDTVKKLGESGEIKAIGELDLLFMSLRNACI
modifications: N-linked glycans with the sialic acids enzymatically removed
notes: IL22 cytokine of the IL22-Fc fusion UTTR1147A, same chain as m1; Same polypeptide as m1; differs only in the glycans; also called sialidase-treated IL22-Fc; source: IL22-Fc from cell culture fermentation, purified, then enzymatically desialylated
For B1, the “fold change in binding against control IL22-Fc” value is roughly 2 fold.

B2: IL22-Fc N21Q point mutant (Fc fusion, UniProt Q9GZX6 34-179, looked up)
chain: APISSHCRLDKSNFQQPYITQRTFMLAKEASLADNNTDVRLIGEKLFHGVSMSERCYLMKQVLNFTLEEVLFPQSDRFQPYMQEVVPFLARLSNRLSTCHIEGDDLHIQRNVQKLKDTVKKLGESGEIKAIGELDLLFMSLRNACI
modifications: N-linked glycans; the glycosylation site at N21 knocked out
notes: IL22 cytokine of the IL22-Fc fusion UTTR1147A with N21Q; Parent is m1; source: 10 day CHO cell culture fermentations, SP Sepharose Fast Flow ion exchange chromatography
For the molecule B2, the “fold change in potency (binding ELISA) relative to wild type” value turned out to be 3.98 fold.
